Numbering of substitutions follows the chain as printed. Where two headings read alike, the source gives them in different places.

The target of experiment [1] is T1, wildtype SARS-2 RBD (SARS-CoV-2, GenBank MN975262.1 …, UniProt A0A679G9E9).
Experiment [2] concerns the target T1, wildtype SARS-2 RBD. As to the kind of experiment: BLI.

B1: Ab20 (antibody, V domains shown)
VH: EVQLQQSGPELVKPGASVKISCKASGFSFTGYSMNWMKQSPEKSLEWIGEINPTTGGTTYNQKFKAKATLTVDKSSSTAYIQLKSLTSEDSAVYYCARGRADYWGQGTTLTVSS
VL: DIVLTQSPASLAVSLGQRATISCRASESVEYYGTGLVQWFQQKPGQPPKLLIYAASNVESGVPARFSGSGSGTDFSLNIHSVEEDDIAMYFCHQSRKLPWTFGGGTKLEIK
B1: the binding result with wildtype SARS-2 RBD [1] was “binds”.

B2: Ab15 (antibody, V domains shown)
VH: EVQLQQSGPELVKPGASVKISCKASGYSFTGYYMNWVKQSPEKSLEWIGEINPNFGGTTYNQKFKAKATLTVDKSSSTAYMQLKSLTSEDSAVYYCARYYGNLYAMDYWGQGTSVTVS
VL: DILMTQSPSSMSVSLGDTVSITCHASQGISSNIGWLQQKPGKSFKGLIYHGTNLEDGVPSRFSGSGSGAAYSLTISSLESEDFADYYCVQYTHFPYTFGGGTKLEIK
For B2, the binding result with wildtype SARS-2 RBD [1] was “binds”.

B3: Ab16 Fab (Fab, V domains shown)
VH: B2 VH with T30N, G31N, F55S, G57Y, T59S, K65R, S77T, Y100F, Y104F, Y108F
VL: B2 VL with S30G, H50L, A70D, T92V, H93Q
Consider B3, for which the binding result with wildtype SARS-2 RBD [2] is given as “binds”.

B4: Ab19 (antibody, V domains shown)
VH: QVQLQQSGAELARPGASVKLSCKASGYPFTSYGINWVKQRTGQGLEWIGEIYPRIGNTYYNEKFKGKATLTADKSSSTAYMEFRSLTSEDSAVYFCARSWNSNYGEYYFDYWGQGTTLTVS
VL: DIVMTQSHKFMSTSIGDRVSITCKASHDVSTAVAWYQQKPGQSPKLLIYWASTRHTGVPDRFTGSGSGTDYTLTIRSVQAEDLALYYCQQHYSTPYTFGGGTKLEIK
As to B4, the binding result with wildtype SARS-2 RBD [1] is “binds”.

The values are drawn from doi:10.1101/2021.03.15.435440 (bioRxiv, 2021).
